Results from PMC11248248, “Dual protection by Bcp1 and Rkm1 ensures incorporation of uL14 into pre-60S ribosomal subunits” (The Journal of Cell Biology, 2024).

T1: GST-Kap123 (S. cerevisiae, UniProt P40069 1-1113)
T1 construct: importin Kap123, S. cerevisiae; also called karyopherin; importin; source: recombinant, purified on glutathione beads; not shown: GST, N-terminal, kept
T1 sequence (looked up): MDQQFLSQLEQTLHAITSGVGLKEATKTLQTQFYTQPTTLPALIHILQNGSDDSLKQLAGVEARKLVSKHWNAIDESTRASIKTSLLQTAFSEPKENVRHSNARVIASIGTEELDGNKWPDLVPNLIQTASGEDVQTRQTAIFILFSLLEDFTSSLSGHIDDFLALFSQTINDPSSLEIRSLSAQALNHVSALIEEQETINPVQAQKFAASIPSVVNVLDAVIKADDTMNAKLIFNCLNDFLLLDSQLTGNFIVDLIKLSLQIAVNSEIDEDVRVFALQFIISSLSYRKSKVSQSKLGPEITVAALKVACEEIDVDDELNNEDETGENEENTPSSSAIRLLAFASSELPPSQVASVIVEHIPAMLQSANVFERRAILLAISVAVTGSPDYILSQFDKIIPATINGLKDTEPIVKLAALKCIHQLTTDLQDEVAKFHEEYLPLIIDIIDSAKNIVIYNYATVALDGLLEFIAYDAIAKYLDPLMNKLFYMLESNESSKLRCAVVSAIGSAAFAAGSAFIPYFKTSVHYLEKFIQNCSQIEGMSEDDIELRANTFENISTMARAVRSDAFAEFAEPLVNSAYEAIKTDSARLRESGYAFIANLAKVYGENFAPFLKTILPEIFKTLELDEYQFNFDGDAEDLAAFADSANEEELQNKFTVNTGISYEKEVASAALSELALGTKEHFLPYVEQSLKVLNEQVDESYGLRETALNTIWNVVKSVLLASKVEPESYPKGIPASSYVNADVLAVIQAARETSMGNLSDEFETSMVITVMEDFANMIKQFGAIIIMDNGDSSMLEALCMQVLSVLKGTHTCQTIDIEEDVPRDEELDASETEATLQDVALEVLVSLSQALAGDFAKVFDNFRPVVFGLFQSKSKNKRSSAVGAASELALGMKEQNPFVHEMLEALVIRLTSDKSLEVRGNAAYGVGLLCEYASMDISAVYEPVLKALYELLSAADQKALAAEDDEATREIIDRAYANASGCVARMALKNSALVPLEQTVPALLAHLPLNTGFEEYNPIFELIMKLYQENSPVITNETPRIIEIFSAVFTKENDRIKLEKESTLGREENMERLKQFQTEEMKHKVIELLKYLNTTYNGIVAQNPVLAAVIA

T2: GST-Kap121 (S. cerevisiae, UniProt P32337 1-1089)
T2 construct: importin Kap121 (Pse1), S. cerevisiae; also called karyopherin; importin; source: recombinant, purified on glutathione beads; not shown: GST, N-terminal, kept
T2 sequence (looked up): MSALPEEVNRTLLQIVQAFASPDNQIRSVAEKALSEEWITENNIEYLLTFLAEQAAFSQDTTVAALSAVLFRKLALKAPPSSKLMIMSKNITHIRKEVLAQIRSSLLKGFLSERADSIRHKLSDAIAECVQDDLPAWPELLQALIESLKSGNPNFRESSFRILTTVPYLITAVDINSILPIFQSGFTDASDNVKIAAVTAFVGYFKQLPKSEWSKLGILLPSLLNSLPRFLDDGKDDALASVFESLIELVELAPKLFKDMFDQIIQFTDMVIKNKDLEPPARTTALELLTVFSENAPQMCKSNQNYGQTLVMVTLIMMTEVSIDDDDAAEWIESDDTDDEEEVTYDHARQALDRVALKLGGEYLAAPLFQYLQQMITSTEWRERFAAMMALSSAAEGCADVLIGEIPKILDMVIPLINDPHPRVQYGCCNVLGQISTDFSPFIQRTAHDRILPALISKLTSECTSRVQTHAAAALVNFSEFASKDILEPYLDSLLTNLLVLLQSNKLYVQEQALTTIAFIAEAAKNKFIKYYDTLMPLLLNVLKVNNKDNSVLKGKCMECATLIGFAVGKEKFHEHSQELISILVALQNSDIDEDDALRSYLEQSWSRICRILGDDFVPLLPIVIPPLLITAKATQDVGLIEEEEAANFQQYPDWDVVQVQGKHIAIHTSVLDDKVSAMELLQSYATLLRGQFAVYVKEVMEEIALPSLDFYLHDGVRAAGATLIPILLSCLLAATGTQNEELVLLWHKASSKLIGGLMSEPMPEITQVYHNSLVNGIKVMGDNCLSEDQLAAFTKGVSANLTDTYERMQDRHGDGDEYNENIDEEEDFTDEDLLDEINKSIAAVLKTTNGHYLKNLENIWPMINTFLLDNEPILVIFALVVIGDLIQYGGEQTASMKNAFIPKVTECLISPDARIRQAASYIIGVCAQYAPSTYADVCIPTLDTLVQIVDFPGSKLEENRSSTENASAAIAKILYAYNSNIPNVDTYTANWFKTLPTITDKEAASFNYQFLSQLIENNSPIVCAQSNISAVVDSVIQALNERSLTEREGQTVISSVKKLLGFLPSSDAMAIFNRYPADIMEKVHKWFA

T3: Rkm1-His6 (S. cerevisiae, UniProt Q08961 1-583)
T3 construct: Rkm1, ribosomal lysine methyltransferase with SET domain, S. cerevisiae; also called recombinant Rkm1; source: E. coli BL21(DE3), purified (Ni-NTA, Superdex 200)
T3 sequence (looked up): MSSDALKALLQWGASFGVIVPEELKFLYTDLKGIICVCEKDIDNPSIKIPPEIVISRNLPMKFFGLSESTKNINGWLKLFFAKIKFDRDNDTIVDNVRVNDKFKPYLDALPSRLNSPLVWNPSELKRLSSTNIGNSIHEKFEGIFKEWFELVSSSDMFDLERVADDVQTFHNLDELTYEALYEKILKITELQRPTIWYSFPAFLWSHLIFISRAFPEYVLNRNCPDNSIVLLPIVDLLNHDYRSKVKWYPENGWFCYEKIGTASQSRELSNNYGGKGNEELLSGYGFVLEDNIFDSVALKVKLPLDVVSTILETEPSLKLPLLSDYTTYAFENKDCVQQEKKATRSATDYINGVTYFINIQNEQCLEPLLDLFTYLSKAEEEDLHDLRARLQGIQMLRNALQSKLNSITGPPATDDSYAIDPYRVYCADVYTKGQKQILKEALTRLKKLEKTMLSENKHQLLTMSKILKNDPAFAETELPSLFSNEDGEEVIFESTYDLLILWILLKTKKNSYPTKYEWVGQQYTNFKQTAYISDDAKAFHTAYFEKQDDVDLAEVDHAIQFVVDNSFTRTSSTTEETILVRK

B1: Rkm1/uL14 complex (complex)
chain 1: T3 sequence (looked up)
chain 2: not shown
notes: Rkm1, S. cerevisiae; uL14 (Rpl23), S. cerevisiae; as the chain of m2; also called uL14/Rkm1 complex; source: E. coli, recombinant, purified
B2: Bcp1-His6 (natural protein, S. cerevisiae, UniProt Q06338 1-283, looked up)
chain: MVQAIKLNDLKNRKRKNVEEENGSDESEIDISSTDSENEEEQNGEEEIVNIDFDFFGGNPEVDFHALKNLLRQLFGPQESTRIQLSSLADLILGSPTTTIKTDGKESDPYCFLSFVDFKANHLSDYVKYLQKVDMRLSTFFKTMIDSGNKNCALVLSERLINMPPEVVPPLYKITLEDVATALGDDKHYDFYIIVTRKYEVNFDTDDDTDSGKRNKNKDERSKKRVKADEVDYFHEEDRFFEKYAKIHFESEAKKGVISSYMILDHEGLVKSIDELETEISTW
notes: Bcp1, S. cerevisiae; also called full-length Bcp1; recombinant Bcp1
B3: bcp1ΔN10 (domain or fragment, S. cerevisiae, UniProt Q06338 11-283, looked up)
chain: KNRKRKNVEEENGSDESEIDISSTDSENEEEQNGEEEIVNIDFDFFGGNPEVDFHALKNLLRQLFGPQESTRIQLSSLADLILGSPTTTIKTDGKESDPYCFLSFVDFKANHLSDYVKYLQKVDMRLSTFFKTMIDSGNKNCALVLSERLINMPPEVVPPLYKITLEDVATALGDDKHYDFYIIVTRKYEVNFDTDDDTDSGKRNKNKDERSKKRVKADEVDYFHEEDRFFEKYAKIHFESEAKKGVISSYMILDHEGLVKSIDELETEISTW
notes: Bcp1, S. cerevisiae, truncated by 10 amino acids from the N terminus; also called bcp1(∆N10); bcp1∆N10; source: E. coli, purified
B4: uL14 (recombinant) (natural protein)
chain: not shown
notes: ribosomal protein uL14 (Rpl23), S. cerevisiae, encoded by RPL23A and RPL23B; No tag is named for recombinant uL14; for the Bcp1/uL14 complex its bacterial pellet was lysed together with that of Bcp1-His6; also called Rpl23; source: E. coli BL21(DE3), purified
B5: bcp1ΔN20 (domain or fragment, S. cerevisiae, UniProt Q06338 21-283, looked up)
chain: ENGSDESEIDISSTDSENEEEQNGEEEIVNIDFDFFGGNPEVDFHALKNLLRQLFGPQESTRIQLSSLADLILGSPTTTIKTDGKESDPYCFLSFVDFKANHLSDYVKYLQKVDMRLSTFFKTMIDSGNKNCALVLSERLINMPPEVVPPLYKITLEDVATALGDDKHYDFYIIVTRKYEVNFDTDDDTDSGKRNKNKDERSKKRVKADEVDYFHEEDRFFEKYAKIHFESEAKKGVISSYMILDHEGLVKSIDELETEISTW
notes: Bcp1, S. cerevisiae, truncated by 20 amino acids from the N terminus; also called bcp1(∆N20); Bcp1(∆N20); source: E. coli, purified
B6: methylated uL14 (natural protein)
chain: not shown
modifications: methylated at K106 and K110
notes: uL14 (Rpl23), S. cerevisiae; Methylation stoichiometry of K106 and K110 ~98.6% by AspN digestion; also called uL14 methylated in vitro by Rkm1 with SAM; source: recombinant uL14 methylated on GST-Rkm1 beads with 0.5 mM SAM, 30°C, 80 min

Tests used:
Settings in all cases: both partners purified
[1] = target: T1, GST-Kap123; test: pull-down; GST-Kap121 or GST-Kap123 on glutathione beads, incubated with recombinant proteins at 4°C for 1 h, three washes; Coomassie staining and western blotting
[2] = target: T2, GST-Kap121; test: as above
[3] = target: T4, GST-Rkm1/uL14 complex (S. cerevisiae, UniProt Q08961 1-583; P0CX41 1-137); test: pull-down; purified Bcp1 or bcp1∆N20 added to the GST-Rkm1/uL14 complex immobilised on glutathione beads, with or without 0.5 mM SAM, 30°C, 80 min; beads and supernatants analysed
T4 construct: Rkm1, S. cerevisiae; as the chain of m12; uL14 (Rpl23), S. cerevisiae; as the chain of m2; also called Rkm1/uL14 complex on glutathione beads; source: recombinant, purified with glutathione beads
T4 sequence (P0CX41 whole entry, one chain of several): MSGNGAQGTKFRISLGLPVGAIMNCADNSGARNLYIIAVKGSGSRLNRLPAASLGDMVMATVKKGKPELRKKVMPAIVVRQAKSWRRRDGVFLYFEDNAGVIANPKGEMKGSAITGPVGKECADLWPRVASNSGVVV

[4] = target: T2, GST-Kap121; test: pull-down; release test: GST-Kap in complex with cargo immobilised on glutathione beads, purified Bcp1 or bcp1ΔN added for another hour at 4°C; what is left on the beads or in the supernatant by western blotting
[5] = target: B2; test: SEC; HiLoad 16/600 Superdex 200; Bcp1, uL14 and Rkm1 mixed; ratio from band intensity in SDS-PAGE and molecular weight estimated from SEC
[6] = target: T3, Rkm1-His6; test: as above
[7] = target: B2; test: pull-down; Bcp1-His6 in the supernatants of the methylation reactions (Fig. 6 A, lanes 7 and 8) purified on Ni-NTA beads; bound uL14 and its methylation by western blotting

Row | Binder | binding result [1] | binding result [2] | binding result [3] | other results
1 | B1 | binds | binds | – | –
2 | B2 | – | binds | binds | –
3 | B3 | – | binds | – | –
4 | B4 | binds | – | – | binding result [4]: binds; stoichiometry N [5]: ~1; stoichiometry N [6]: ~1
5 | B5 | – | – | binds | –
6 | B6 | – | – | – | binding result [7]: binds
